From US8178324B2, “Deracemisation of amines” (Ingenza Limited, priority 2002, dated 2012)
Numbering of substitutions follows the chain as printed.

B1: MAO mutant: A. niger monoamine oxidase variant with serine replacing asparagine at position 336 (SEQ ID NO: 2) (protein)
chain: MTSRDGYQWTPETGLTQGVPSLGVISPPTNIEDTDKDGPWDVIVIGGGYCGLTATRDLTVAGFKTLLLEARDRIGGRSWSSNIDGYPYEMGGTWVHWHQSHVWREITRYKMHNALSPSFNFSRGVNHFQLRTNPTTSTYMTHEAEDELLRSALHKFTNVDGTNGRTVLPFPHDMFYVPEFRKYDEMSYSERIDQIRDELSLNERSSLEAFILLCSGGTLENSSFGEFLHWWAMSGYTYQGCMDCLISYKFKDGQSAFARRFWEEAAGTGRLGYVFGCPVRSVVNERDAARVTARDGREFVAKRVVCTIPLNVLSTIQFSPALSTERISAMQAGHVSMCTKVHAEVDNMDMRSWTGIAYPFNKLCYAIGDGTTPAGNTHLVCFGTDANHIQPDEDVRETLKAVGQLAPGTFGVKRLVFHNWVKDEFAKGAWFFSRPGMVSECLQGLREKHGGVVFANSDWALGWRSFIDGAIEEGTRAARVVLEELGTKREVKARL
modifications: Variant monoamine oxidase enzyme generated by direct evolution
B2: MAO WT: wild-type Aspergillus niger monoamine oxidase (SEQ ID NO:1) expressed in E. coli BL21(DE3) (protein)
chain: B1 chain with S336N
modifications: Aspergillus niger

What was measured:
Format in all cases: biochemical
[1] = Specific activity of the purified MAO mutant active fraction against amylamine; conditions: active fraction after QSepharose, protein 1 mg·ml^−1
Procedure: LB medium (6×300 ml) containing ampicillin (100 μg·ml^−1) in 1 L baffled flasks was inoculated with a single colony of monoamine oxidase mutant from an LB agar plate. Cultures were incubated at 30° C. for 22 hours (OD600˜3.6) then harvested and washed with phosphate buffer (50 mM, pH 8) to yield a yellow-brown pellet (11.2 g).
The pellet was resuspended in Tris/HCl buffer (25 mM, pH 7.8, 30 ml) and sonicated on ice (30 s on, 30 s off for 10 minutes). The suspension was then centrifuged (20,000 rpm, 4° C.) until clear supernatant was obtained and the supernatant dialysed against Tris/HCl buffer (25 mM, pH 7.8). The cell free extract was filtered through 0.45 μm sterile membrane and chromatographed on a QSepharose anion exchange column. Fractions were assayed using colorimetric hydrogen peroxide based assay and active fractions were stored at −80° C. The active fraction has a protein content of 1 mg·ml^−1, and a specific activity of 0.193 U·mg^−1 against amylamine. […]
The spectrophotometer was blanked against assay mixture and HRP. Enzyme was added and the absorbance at 500 nm measured at 3 s intervals for a 10 minute period.

[2] = Cell free extracts assayed towards L-AMBA; conditions: 240 minutes
Procedure: To 895 ul Assay Mixture was Added: • 5 μl HRP (Sigma, P6782) (1 mg/ml)
Sample (100 μl) was added and absorbance at 510 nm measured after 24 hours against a control without sample.
This was achieved by incubating 50 μl of each sample for 240 minutes and specific activities were determined. (Table 4)

[3] = Specific activities of partially purified MAO WT and MAOArg259/260 towards amylamine
Procedure: MAO WT and MAOArg259/260 were partially purified from recombinant E. coli BL21(DE3) harbouring a pET16b carrying the corresponding mao-n gene. Cell free extracts were prepared by sonication and the specific activities of MAO WT and MAOArg259/260 towards AA were measured for both the soluble and insoluble fractions. (Table 3)

Molecule | specific activity against amylamine [1] [U·mg^−1] | ΔAbs 510 nm ([2]; 50 μl sample) | Soluble fraction specific activity [2] | Total activity [3] [U] | Insoluble fraction specific activity ([3]; insoluble fraction) [U · mg^−1] | Soluble fraction specific activity ([3]; soluble fraction) [U · mg^−1]
B1 | 0.193 | – | – | – | – | –
B2 | – | 0.06 | 3.6 × 10^−5 U · mg^−1 | 0.57 | 0.33 | 0.23
